Reference: the nanobody polyreactivity screen of Harvey et al. (2022)

Assay: yeast display, Sf9 membrane polyspecificity reagent, FACS + sequencing; frameworks hold sequencing errors
In short: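 Nanobodies came from a synthetic yeast display library in Saccharomyces cerevisiae BJ5465, induced with galactose for 36–48 hours and stained for 1 hour at 4 °C with 10% biotinylated, detergent-solubilized Sf9 membrane reagent. Cells were enriched on streptavidin microbeads and then FACS-sorted, with low and high (top ~1%) gates set on anti-HA fluorescence for expression and streptavidin fluorescence for reagent binding. Each polyreactivity label reflects the gate a clone came from. Genes were amplified by colony PCR, sequenced by MiSeq 2 × 250 and filtered by CDR length.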

| Sequence | polyreactivity (PSR sort gate) |
| --- | --- |
| QVQLVESGGGLVQAGGSLRLSCAASGRTFYFNTMGWDRPAPGKERELVAAIDERGDSTYYADSVKGRFTISRDNAKNTVYLQMNSLKPEDTAVYYCATDWTLEVYYGRYIAKYEYGSWGQGTQVTVSS | low polyreactivity |
| QVQLVESGGGLVQAGGSLRLSCAASGRTFYFYTMGWYRQAPGKERELVAAISWSGGSTYYADSVKGRFTISRDNAKNTVYLQMISLKPEDTAVYYCAASSPWEQSNDQFYYWGQGTQVTVSS | low polyreactivity |
| QVQLVESGGGLVQAGGSLRLSCAASGRTFYGNAMGWYRQAPGKERELVAAINRDGGTYYADSVKGRFTISRDNAKNTVYLQMNSLKPEDTAVYYCNAVKRGIRYGYWGQGTQVTVSS | high polyreactivity |
| QVQLVESGGGLVQAGGSLRLSCAASGRTFYGNAMGWYRQAPGKERELVAAISWSGGGTYYADSVKGRFTISRDNAKNTVYLQMNSLKPEDTAVYYCAAQFGRKGSGVWTRPENYWGQGTQVTVSS | high polyreactivity |
| QVQLVESGGGLVQAGGSLRLSCAASGRTFYGNAMGWYRQAPGKERELVAAISYRTGRTYYADSVKGRFTISRDNAKNTVYLQMNSLKPEDTAVYYCAADLHSRDDYWGQGTKVTVSS | high polyreactivity |
| QVQLVESGGGLVQAGGSLRLSCAASGRTFYGYAMGLYRQAPGKERELGASIRQSAGRTYYADSVKGRFTISRDNAMNTVYLQMNSLNPEDTAVYYCAASIFLRSFYQQGNYWGQGTQVTVSS | high polyreactivity |
| QVQLVESGGGLVQAGGSLRLSCAASGRTFYGYAMGWYRQAPGKEREFVAAINRSGGTTYYADSVKGRFTISRDNAKNTVYLQMNSLKPEDTAVYYCAADYSRIRRWPGYYAYDYWGQGTQVTVSS | high polyreactivity |
| QVQLVESGGGLVQAGGSLRLSCAASGRTFYGYAMGWYRQAPGKEREFVAAINWSGGTTYYADSVKGRFTISRDNAKNTVYLQMNSLKPEDTAVYYCAADYYRIRRWPGYYAYDYWGQGTQVTVSS | high polyreactivity |
| QVQLVESGGGLVQAGGSLRLSCAASGRTFYGYAMGWYRQAPGKEREFVAAITYSGGRTYYADSVKGRFTISRDNAKNTVYLQMNSLKPEETAVYYCNAYYYYVNQGRYEYGYWGQGTQVTVSS | high polyreactivity |
| QVQLVESGGGLVQAGGSLRLSCAASGRTFYGYAMGWYRQAPGKERELVAVITRDGSTNYADSVKGRFTISRDNAKNTVYLQMNSLKPEDTAVYDCAAERLAYRVRWRYNQEDYWGQGTQVTVSS | high polyreactivity |
| QVQLVESGGGLVQAGGSLRLSCAASGRTFYGYTMGWYRQAPGKERELVAAISRNGASTFYADSVKGRFTISRDNAKNTVYLQMNSLKPEDTAVYYCNARSWRHTDTSFEYWGQGTQVTVSS | high polyreactivity |
| QVQLVESGGGLVQAGGSLRLSCAASGRTFYGYTMGWYRQAPGKERELVAAISTGGGSTYYADSVKGRFTISRDNAKNTVYLQMNSLKPEDTEVYYCAARGGSYSFRRYNYWGQGTQVTVSS | high polyreactivity |
| QVQLVESGGGLVQAGGSLRLSCAASGRTFYHNTIGGYRQQPGKERELVAVINDSGTRTYYADSVKGRFTISRDNAKNTVYLQMNSLKPEDTAVYYCAARSYVGGAILGYWGQGTQVTVSS | high polyreactivity |
| QVQLVESGGGLVQAGGSLRLSCAASGRTFYHYTMGWYTQAPGKERELVAAISSGGSTNYADSVKGRFTISRDNAKNTVYLQMNSLKPEDTAVYYCAARYRGWSGGYDYWGQGTQETVSS | high polyreactivity |
| QVQLVESGGGLVQAGGSLRLSCAASGRTFYINAMGWYRPEPGKERELVAAISSSGGITYYADSVKGRFTISRDNAKNTVNLQMIRLKPEDTAVYYCNAPNDYSWHYDYWGQGTQVTVSS | low polyreactivity |
| QVQLVESGGGLVQAGGSLRLSCAASGRTFYINAMGWYRQAPGKEREFVAAITDGGDRTYYADSVKGRFTISRDNEKNTVYLQMNSLKPEDTAVYYCAADRGVRYDYWGQGTQVTVSS | low polyreactivity |
| QVQLVESGGGLVQAGGSLRLSCAASGRTFYIYAMGWYRQAPGKERELVAAITYGGGRTFYADSVKGRFTISRDNAKNTVYLQMNSLKPEDTAVYYCAASVRGKRSTYDYWGQGTQVTVSS | high polyreactivity |
